The values below come from article PMC12418098, “A single helicase-binding domain of DnaG couples with hexameric helicase DnaB in Bacillus stearothermophilus”.

Where “and” joins values, the source holds several entries; their conditions need not be identical. Equal entries are not always repeated.

Data set [1] has as its target helicase DnaB hexamer from Bacillus stearothermophilus (Bacillus stearothermophilus) (UniProt Q9X4C9). Nature of the data set: ITC; DnaB hexamer without ssDNA titrated by DnaG(HBD); 25°C; 25 mmol/L Tris pH 8.0, 100 mmol/L NaCl.
The target is the same in data set [2]. Nature of the data set: ITC; DnaG(HBD) (200 μmol/L, needle) titrated into the pre-formed, gel-filtered DnaB6/dT16 complex (10 μmol/L, cell); 25°C; 25 mmol/L Tris pH 8.0, 100 mmol/L NaCl; one-set-of-sites model.
Data set [3] concerns the target helicase-binding domain of primase DnaG from Bacillus stearothermophilus (Bacillus stearothermophilus) (UniProt Q9X4D0). Nature of the data set: ITC; reverse titration: pre-formed DnaB6/dT16 complex (200 μmol/L, needle) titrated into DnaG(HBD) (10 μmol/L, cell); 25°C; 25 mmol/L Tris pH 8.0, 100 mmol/L NaCl; one-set-of-sites model. In general terms: Isothermal titration calorimetry measures the heat released or taken up as one component is titrated into another.

The target of data set [4] is T1, DnaB helicase;DnaG(HBD) (Bacillus stearothermophilus;Bacillus …, UniProt Q9X4C9;Q9X4D0 1-454;455-597, |).
T1 sequence 1: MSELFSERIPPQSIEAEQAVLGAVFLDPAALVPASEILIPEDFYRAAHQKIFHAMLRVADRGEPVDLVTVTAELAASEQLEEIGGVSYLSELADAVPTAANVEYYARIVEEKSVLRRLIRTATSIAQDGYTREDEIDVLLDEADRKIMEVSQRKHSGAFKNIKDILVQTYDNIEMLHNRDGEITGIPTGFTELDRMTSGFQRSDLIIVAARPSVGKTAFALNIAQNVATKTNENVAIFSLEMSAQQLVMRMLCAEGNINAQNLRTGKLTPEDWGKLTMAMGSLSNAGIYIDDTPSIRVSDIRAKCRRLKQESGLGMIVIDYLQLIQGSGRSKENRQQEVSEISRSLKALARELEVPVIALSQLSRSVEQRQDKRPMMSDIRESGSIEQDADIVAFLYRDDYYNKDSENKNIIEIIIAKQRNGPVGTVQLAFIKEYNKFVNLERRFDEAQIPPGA
T1 sequence 2: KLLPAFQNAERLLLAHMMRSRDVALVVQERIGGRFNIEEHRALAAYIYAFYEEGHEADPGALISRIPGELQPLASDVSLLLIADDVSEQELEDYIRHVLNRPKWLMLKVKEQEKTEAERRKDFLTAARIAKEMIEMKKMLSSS
Nature of the data set: EMSA; DnaG(HBD) 1-15 pmol added to DnaB/dT16; 5 mM MgCl2, 2 mM ATP; EMSA: 25 mM Tris pH 8.0, 100 mM NaCl, 10% glycerol, 1 mM DTT, 5 mM MgCl2, 2 mM ATP, 4 C, native PAGE (6% in Methods, 8% in legend); ITC: 25 mM Tris pH 8.0, 100. The note with it: protein: recombinant;recombinant; tags: GST tag removed with PreScission (pGEX-6p-1);GST tag removed with PreScission (pGEX-6p-1); chain copies: 6;1; label: 5'-6-FAM; single strand. On the technique in general: A gel shift assay detects complexes by their altered migration in electrophoresis.

In data set [5] the target is T1, DnaB helicase;DnaG(HBD). Nature of the data set: gel filtration with SDS-PAGE and native PAGE; ternary complex, single peak; ITC Kd of Table 1 (about 1 uM) is HBD binding to preformed DnaB6/dT16, a protein-protein contact, so not listed as a value; EMSA: 25 mM Tris pH 8.0, 100 mM NaCl, 10% glycerol, 1 mM DTT, 5 mM MgCl2, 2 mM ATP, 4 C, native PAGE (6% in Methods, 8% in legend); ITC: 25 mM Tris pH 8.0, 100. The settings on record: protein: recombinant;recombinant; tags: GST tag removed with PreScission (pGEX-6p-1);GST tag removed with PreScission (pGEX-6p-1); chain copies: 6;1; label: none stated; single strand.

The target of a further data set is T2, DnaB helicase (Bacillus stearothermophilus, UniProt Q9X4C9 1-454).
T2 sequence: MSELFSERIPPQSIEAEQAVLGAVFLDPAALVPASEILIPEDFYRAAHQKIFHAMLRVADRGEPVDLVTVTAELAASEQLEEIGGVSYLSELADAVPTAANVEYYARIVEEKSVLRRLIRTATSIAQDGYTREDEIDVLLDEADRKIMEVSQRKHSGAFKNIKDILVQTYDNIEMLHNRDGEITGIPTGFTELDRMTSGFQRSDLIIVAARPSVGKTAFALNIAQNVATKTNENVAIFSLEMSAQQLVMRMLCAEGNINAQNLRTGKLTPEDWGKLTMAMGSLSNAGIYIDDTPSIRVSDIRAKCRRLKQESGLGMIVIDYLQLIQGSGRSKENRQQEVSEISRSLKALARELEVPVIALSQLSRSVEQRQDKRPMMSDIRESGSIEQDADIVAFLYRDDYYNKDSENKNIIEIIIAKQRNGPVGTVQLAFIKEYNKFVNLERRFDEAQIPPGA
Nature of the data set: gel filtration with SDS-PAGE and SYBR Green II staining; binary complex; EMSA: 25 mM Tris pH 8.0, 100 mM NaCl, 10% glycerol, 1 mM DTT, 5 mM MgCl2, 2 mM ATP, 4 C, native PAGE (6% in Methods, 8% in legend); ITC: 25 mM Tris pH 8.0, 100. The settings on record: protein: recombinant; tags: GST tag removed with PreScission (pGEX-6p-1); chain copies: 6; label: none stated; single strand. On the technique in general: SEC sorts molecules by how far they enter the pores of the column.

What is called Kd is a measure of binding affinity in units of concentration. Read a high Kd as a looser complex. The stoichiometry N is a count of units in the complex or per binding partner. Regarding “helicase-binding domain of primase DnaG from Bacillus stearothermophilus (from UniProt Q9X4D0 1-597) (domain or fragment)”, the stoichiometry N (DnaG(HBD) per DnaB hexamer) in data set [1] worked out at 3. For the same molecule, in data set [2], the equilibrium dissociation constant (Kd) was 0.96 µM and 1.13 µM and 1.07 µM; the dH was -22.8 kcal/mol and -22.7 kcal/mol and -22.2 kcal/mol; the stoichiometry N was 1.09 and 1.02 and 0.981.

B1: helicase DnaB hexamer from Bacillus stearothermophilus (enzyme)
chain: MSELFSERIPPQSIEAEQAVLGAVFLDPAALVPASEILIPEDFYRAAHQKIFHAMLRVADRGEPVDLVTVTAELAASEQLEEIGGVSYLSELADAVPTAANVEYYARIVEEKSVLRRLIRTATSIAQDGYTREDEIDVLLDEADRKIMEVSQRKHSGAFKNIKDILVQTYDNIEMLHNRDGEITGIPTGFTELDRMTSGFQRSDLIIVAARPSVGKTAFALNIAQNVATKTNENVAIFSLEMSAQQLVMRMLCAEGNINAQNLRTGKLTPEDWGKLTMAMGSLSNAGIYIDDTPSIRVSDIRAKCRRLKQESGLGMIVIDYLQLIQGSGRSKENRQQEVSEISRSLKALARELEVPVIALSQLSRSVEQRQDKRPMMSDIRESGSIEQDADIVAFLYRDDYYNKDSENKNIIEIIIAKQRNGPVGTVQLAFIKEYNKFVNLERRFDEAQIPPGA
As for B1, in data set [3], the Kd was 1.01 µM and 1.11 µM and 0.89 µM; the dH was -11.2 kcal/mol and -9.18 kcal/mol and -9.75 kcal/mol; the stoichiometry N is 0.987 and 1.08 and 1.05.
Take TTTTTTTTTTTTTTTT (ssDNA) [dT16 (6-FAM)]: in the data set with DnaB helicase;DnaG(HBD) [4], the binding result is reported as “binds”.
TTTTTTTTTTTTTTTT (ssDNA) [dT16]: the binding result with DnaB helicase;DnaG(HBD) [5] and in the data set with DnaB helicase was “binds” each time.
